These results are taken from the Human Domainome abundance scans (Beltran et al. 2025).

± gives the uncertainty stated by the source.

First the molecules themselves.
B1: Nuclear receptor subfamily 1 group D member 2, residues 103 to 171; numbered along this chain, Q14995 (parent)
chain: CKVCGDVASGFHYGVHACEGCKGFFRRSIQQNIQYKKCLKNENCSIMRMNRNRCQQCRFKKCLSVGMSR

In this data set the parent is B1. The experiment in a line: abundance fitness (aPCA) (normalised: wild type 0, dead -1); higher = more abundant; growth selection in yeast, the domain comes from the species named. The conditions noted are these: Homo sapiens.
Consider M47H, for which the abundance fitness turned out to be 0.07 ± 0.16. To M47R belongs -0.062 ± 0.074; to M47S, 0.184 ± 0.083; to R53F, 0.257 ± 0.2.

In the case of R53N, the abundance fitness stood at 0.332 ± 0.15. To R53V belongs 0.186 ± 0.063; to R53K, 0.028 ± 0.097; to R53E, 0.412 ± 0.085. Turning to R53W, the abundance fitness was determined as 0.14 ± 0.068. The figure for A8G is -0.597 ± 0.08; for A8P it is -0.893 ± 0.17. To A8L belongs -0.998 ± 0.17; to A8C, -0.494 ± 0.16. To A8Y belongs -0.782 ± 0.3. Take A8M: the abundance fitness is -0.584 ± 0.14. Regarding A8F, the abundance fitness was -0.855 ± 0.43. Take A8V: the abundance fitness was -0.798 ± 0.15. Take A8K: the abundance fitness is -0.42 ± 0.13. The figure for A8R is -0.897 ± 0.1; for R27E it is 0.216 ± 0.25; for R27T it is -0.034 ± 0.24. The figure for R27K is -0.275 ± 0.21; for R27F it is -0.581 ± 0.33; for R27G it is -0.433 ± 0.12. In the case of H12T, the abundance fitness was -0.546 ± 0.15. Regarding H12Q, the abundance fitness was -0.568 ± 0.2. To H12A belongs -0.28 ± 0.081. As for H12W, the abundance fitness was found to be 0.033 ± 0.08.

Regarding H12R, the abundance fitness is -0.732 ± 0.13. To H12I belongs -0.747 ± 0.33. The figure for L63N is -0.911 ± 0.47; for L63I it is 0.268 ± 0.22. The figure for L63Q is -0.329 ± 0.21.

As to Q31F, the abundance fitness came out at 0.04 ± 0.2. The figure for Q31W is -0.465 ± 0.12. To Q31S belongs -0.207 ± 0.12; to Q31M, -0.262 ± 0.15. To Q31D belongs -0.278 ± 0.18. As for Q31Y, the abundance fitness is -0.276 ± 0.18. The figure for M49P is -0.178 ± 0.25; for M49D it is 0.428 ± 0.11; for M49S it is 0.076 ± 0.15.

Take M49R: the abundance fitness was -0.316 ± 0.11. The figure for M49K is 0.12 ± 0.23; for C57Q it is -0.59 ± 0.33; for C57D it is -0.689 ± 0.47.

Turning to C57F, the abundance fitness was -0.806 ± 0.27. To C57S belongs -0.836 ± 0.3; to C57K, -0.687 ± 0.46. The figure for C57A is -0.738 ± 0.18. Turning to L39P, the abundance fitness is -0.106 ± 0.11. As for L39Y, the abundance fitness is -0.02 ± 0.16. The figure for L39W is -0.559 ± 0.18; for L39G it is -0.163 ± 0.063; for L39T it is -0.121 ± 0.16.

Consider L39A, for which the abundance fitness amounted to 0.084 ± 0.075. The figure for K36M is -0.267 ± 0.24; for K36S it is 0.137 ± 0.18; for K36W it is -0.33 ± 0.2.

In the case of K36A, the abundance fitness was -0.172 ± 0.12. To K36V belongs -0.26 ± 0.12. The figure for K36G is 0.092 ± 0.11; for K36P it is -0.199 ± 0.16; for K36I it is -0.509 ± 0.48. The figure for K36T is -0.292 ± 0.2; for F59L it is 0.107 ± 0.082; for F59R it is -0.477 ± 0.17.

For F59D, the abundance fitness is -0.8 ± 0.4. To F59G belongs -0.395 ± 0.11; to F59M, -0.326 ± 0.19; to R26M, 0.319 ± 0.42. On to R26H, for which the abundance fitness is -0.359 ± 0.41. As to R26E, the abundance fitness was -0.032 ± 0.15. As to R26I, the abundance fitness was determined as 0.342 ± 0.22. As for R26A, the abundance fitness worked out at 0.133 ± 0.058. Consider K2E, for which the abundance fitness was -0.174 ± 0.14. The figure for K2S is -0.336 ± 0.047; for K2R it is -0.029 ± 0.071; for K2Q it is -0.049 ± 0.14.

With K2V, the abundance fitness was -0.474 ± 0.1. As to K2D, the abundance fitness is -0.482 ± 0.22. To C38F belongs -0.864 ± 0.28; to C38P, -0.682 ± 0.35.

As for C38A, the abundance fitness was -0.74 ± 0.26. With C38D, the abundance fitness is -0.894 ± 0.31.

Regarding C38V, the abundance fitness was -0.551 ± 0.11.

As for C38Y, the abundance fitness was -0.785 ± 0.44. To N43L belongs -0.115 ± 0.078; to N43F, -0.361 ± 0.19; to N43E, 0.017 ± 0.086. Q56I: the abundance fitness was -0.134 ± 0.22.

On to Q56C, for which the abundance fitness is -0.391 ± 0.23. To Q56V belongs -0.134 ± 0.067. To Q56P belongs -0.205 ± 0.12. For the variant S68C, the abundance fitness was -0.097 ± 0.15. To S68V belongs -0.526 ± 0.15. Consider S68E, for which the abundance fitness was -0.087 ± 0.3. Take S68T: the abundance fitness is -0.018 ± 0.13. To S68H belongs -0.347 ± 0.15.

For S68K, the abundance fitness was -0.01 ± 0.32. As to S68P, the abundance fitness is -0.768 ± 0.19. S68F: the abundance fitness is -0.561 ± 0.14.

In the case of N50I, the abundance fitness is -0.415 ± 0.12.

With N50R, the abundance fitness is -0.359 ± 0.073. The figure for N50Q is 0.032 ± 0.11. On to N50P, for which the abundance fitness was -0.45 ± 0.16. To N50M belongs -0.61 ± 0.15; to C54E, -0.77 ± 0.13. To C54N belongs -0.722 ± 0.38; to C54Q, -0.922 ± 0.21; to C54P, -0.606 ± 0.21. The figure for C54R is -0.668 ± 0.079; for R58P it is -0.698 ± 0.18; for R58Y it is -0.055 ± 0.18. In the case of R58E, the abundance fitness was -0.474 ± 0.33. The figure for R58A is -0.272 ± 0.12. G23R: the abundance fitness was -0.087 ± 0.5. To G23V belongs -0.041 ± 0.47; to K40V, -0.273 ± 0.057. As to K40P, the abundance fitness is -0.532 ± 0.13. Regarding K40Q, the abundance fitness was 0.206 ± 0.081.

Turning to K40D, the abundance fitness was found to be 0.115 ± 0.09.

As to K40G, the abundance fitness stood at 0.202 ± 0.042. To K40C belongs -0.615 ± 0.19. The figure for K40T is 0.1 ± 0.079; for K40S it is 0.092 ± 0.056.

In the case of K40L, the abundance fitness is -0.042 ± 0.051.

Take K40W: the abundance fitness is 0.227 ± 0.047.

As to H16F, the abundance fitness was -0.062 ± 0.16. To H16D belongs 0.264 ± 0.098; to H16Y, -0.096 ± 0.075; to H16K, -0.501 ± 0.15. The figure for H16C is -0.411 ± 0.12; for H16T it is -0.1 ± 0.12; for S28C it is 0.179 ± 0.14. To S28W belongs -0.733 ± 0.39; to R51P, 0.216 ± 0.16; to R51A, -0.165 ± 0.12.

With R51S, the abundance fitness is -0.118 ± 0.12. For the variant R51T, the abundance fitness is -0.214 ± 0.41.

Regarding R51Q, the abundance fitness was -0.063 ± 0.23. To R51E belongs -0.091 ± 0.36. Take R51M: the abundance fitness was -0.328 ± 0.45. Take N52I: the abundance fitness was -0.325 ± 0.29. For N52F, the abundance fitness is -0.352 ± 0.33. To N52P belongs -0.698 ± 0.46. Take N52E: the abundance fitness worked out at 0.139 ± 0.26.

In the case of C4V, the abundance fitness is -0.941 ± 0.26.

With C4E, the abundance fitness was -0.687 ± 0.26.

Consider C4A, for which the abundance fitness is -0.949 ± 0.26. For the variant C4W, the abundance fitness was -0.83 ± 0.3. To C4S belongs -0.819 ± 0.21; to N32Q, 0.144 ± 0.12. With N32S, the abundance fitness is -0.381 ± 0.072. The figure for N32D is -0.199 ± 0.093. The figure for N32R is -0.423 ± 0.068. Consider N32K, for which the abundance fitness is -0.401 ± 0.11. For N32I, the abundance fitness is -0.329 ± 0.12. Consider N32H, for which the abundance fitness is -0.566 ± 0.14.

On to N32E, for which the abundance fitness was determined as 0.176 ± 0.083. Regarding N32C, the abundance fitness was -0.612 ± 0.2.

On to V7A, for which the abundance fitness is -0.153 ± 0.1. To V7T belongs -0.126 ± 0.11. To V7N belongs -0.019 ± 0.24; to V7E, 0.057 ± 0.084.

Regarding V7P, the abundance fitness is -0.295 ± 0.12. On to V7M, for which the abundance fitness is -0.032 ± 0.1.
